Target: human MDR1 (multidrug resistance protein 1) (human, UniProt P08183 1-1280)
Assay: cell-based or functional assay

Binder | IC50 of vincristine on N6/ADR cells with antibody
B1.278 (antibody, human IgG1, V domains shown) VH: QVQLQQSGPELVKPGASVKISCKASGYSFTGYFMNWVMQSHGKSLEWIGRINPYNGDTFYNQKFKGKATLTVDKSSGTAHMELRSLASEDSAVYYCARCYYYGSSSYGMDYWGQGTSVTVSS VL: QIVLTQSPASLAVSLGQRATISCRASESVHNYGVSFMNWFQQRPGQPPKLLIHAASHQGSGVPARFTGSGSGTDFSLNIHPMEEDDIAMYFCQQSKEVPLTFGAGTKLKLK | 0.029 nM
B1.89 (antibody, human IgG1, V domains shown) VH: KVQLVESGGALVKPGGSLKLSCAASGFTFSNYAMSWVRQTPEKRLEWVATISSSGSYTYFPDSVKGRFTISRDNAKNTLYLQMSSLRSEDTALYYCARYGYDEAWFASWGQGTLVTVSA VL: DVLMTQTPLSLPVSLGDQASISCRSSQTIVHSNGNTYLEWYLQKPGQSPKLLIYKVSKRFSGVPDRFSGSGSGTDFTLKISRVEAEDLGVYYCFQGSHFPRTFGGGTKLEIK | 0.0622 nM
B1.30 (antibody, human IgG1, V domains shown) VH: EVMLVESGGGLVKPGGSLKLSCAASGFTFSSYTMSWVRQTPEKRLEWVATISSGGGNTYYPDSVKGRFTISRDNAKNNLYLQMSSLRSEDTALYYCARYYRYDAWFAYWGQGTLVTVSA VL: DVLMTQTPLSLPVSLGDQASISCRSSQSIVHSTGNTYLEWYLQKPGQSPKLLIYKVSNRFSGVPDRFSGSGSGTDFTLKISRVETEDLGVYYCFQGSHVPRTFGGGTKLEIK | 0.0522 nM
B1.275 (antibody, human IgG1, V domains shown) VH: EVMLVESGGALVKPGGSLKVSCAASGFTFSNYAMSWVRQSPEMRLEWVATISSGGTNTYYPDSVKGRFTISRDNARNTLYLQMSSLRSKDTAMYYCARYSNYGWFPYWGQGTTLTVSS VL: DVVMTQTPLSLPVSLGDQASISCRSSQTIVHSDGYTYLEWYLQKPGQSPKLLIYKVSNRFSGVPDRFSGSGSGTDFTLRISRVEAEDLGVYYCFQGSHVPYTFGGGTKLEIK | 0.0781 nM
KB1.269A (antibody, human IgG1, V domains shown) VH: EVQLVESGGASVKPGGSLKLSCAASGFTFSNYAMSWVRQTPEKRLEWVATISSGGSYTYYLDSVKGRFTISRDNAKNTLYLQMSSLRSEDTALYYCARYYVYDAWFAYWGQGTLVTVSA VL: DVVMTQTPLSLPVSLGDQASISCRSSQSIVHSTGNTYLEWYLQKPGQSPKLLIYKVSNRFSGVPDRFSGSGSGTDFTLKISRVEAEDLGVFYCFQGSHVPRTFGGGTKLEIK | 0.0323 nM
B1.264 (antibody, human IgG1, V domains shown) VH: EVKLVESGGALVKPGGSLKLSCAASGFTFSNYAMSWVRQTPEKRLEWVATISSGGSNTYYPDSVMGRFTISRDNAKNTLYLQMSSLRSEDTALYYCARYSNYGWFAYWGQGTLVTVSS VL: DVVMTQTPLSLPVSLGDQASISCRSSQSIVHSNGNTYLEWYLQKPGQSPKLLIYKVSNRFSGVPDRFSGSGSGTDFTLKISRVEAEDLGVYYCFQGSLVPRTFGGGTKLEIK | 0.0192 nM
B1.99 (antibody, human IgG1, V domains shown) VH: EVQLVESGGALVKPGGSLKLSCAASGFTFSNYAMSWVRQTPERRLEWVATISSGGSYTYYPDSVKGRFTISRDNAKNTLYLQMSSLISEDTALYYCTRGYGNFAWFAYWGHGTLVTVSA VL: DVVMTQTPLSLPVSLGDQVSISCRSSQSIVHSYGSTYLEWYLQKPGQSPKLLIYKVSNRFSGVPDRFSGSGSGTDFTLKISRVEAEDLGVYFCFQGSHIPYTFGGGTKLELK | 0.0619 nM
B1.263 (antibody, human IgG1, V domains shown) VH: EVKLVESGGGLVKPGGSLKLSCAASGFTFSNYGMSWVRQTPEKRLEWVAAISSNGAYTYFPDTVKGRFTISRDNAKNTLYLQMNSLRSEDTALYYCTRRGWDTWFAYWGQGTLVTVSS VL: DVVMTQTPLSLPVSLGDQASISCRSSQNIVHSTGNTYLEWYLQKPGQSPKLLIYKVSNRFSGVPDRFSGSGSGTDFTLKISRVEAEDLGVYYCFQGSHVPWTFGGGTKLEIK | 0.0062 nM

The next lines start with the values.

IC50 of vincristine on N6/ADR cells with antibody | Binder
0.029 nM | B1.276 (antibody, human IgG1, V domains shown) VH: EVKLVESGGALVKPGGSLKLSCAASGFTFRNYAMSWVRQTPEKRLEWVATISSDGSYTYHPDSVKGRFTISRDNARNTLYLQMSSLRSEDTAMYSCTRQGNWGRTWFTYWGQGTLVTVSS VL: QIVLTQSPAIMSASPGEKVTMTCRASSSVSSSYLHWYQQKSGASPKLWIYSTSSLASGVPARFSGSGSGTSYSLTISSVEAEDAATYYCQQYSGYPLTFGAGTKLELK
0.0299 nM | KB1.273A (antibody, human IgG1, V domains shown) VH: QVQLQQSGPELVKTGASVKISCKASGYSFSNYYIHWVKQSHGKSLEWIGFISCYNGATFYNQKFKGKATFTVDTSSSTAYMKFNSLTFEDSAVYYCARLPIQFGNFYPMDYWGQGTSVTVSS VL: QIVLTQSPAIMSASLGERVTMTCTASSSVSSSYLHWYQQKPGSSPKLWIYSTSNLASGVPARFSGSGSGTSYSLTISSMEAEDAATYYCHQYHRSPPTFGAGTKLELK
0.0345 nM | B1.85 (antibody, human IgG1, V domains shown) VH: EVQLVESGGALVKPGGSLKLSCAASGFTFSNYGVSWVRQTPEKRLEWVATISSSGSYTYYPDIVRGRFTISRDNAKNTLYLQMSSLRSEDTAFYYCARGYGNFAWFAYWGQGTLVTVSA VL: DIQMTQSPLSLPVSLGDQASISCRSSQSIVHSTGNTYLEWYLQKPGQSPKLLIYKVSNRFSGVPDRFSGSGSGTDFTLKINRVEAEDLGVYYCFQGSHVPYTFGGGTKLEIK
0.0909 nM | B1.39 (antibody, human IgG1, V domains shown) VH: EVMLVESGGGLVKPGGSLKLSCAASGFTFSSYTMSWVRQTPEKRLEWVATVSSGGGNTYYPDSVKGRFTISRDNAKNNLYLQMSSLRSEDTALYYCARYGNYGWFTYWGQGTLVTVSA VL: DVLMTQTPLSLPVSLGDQASISCRSSQSILHSNGNTYLEWYLQKPGQSPKLLIYKVSNRFSGVPDRFSASGSGTDFTLKISRVEAEDLGIYYCFQGSHVPRTFGGGTKLEIK

Target: T1, human CD47 (human, UniProt Q08722 19-323)
T1 construct: whole, on cells; Overexpressed on rat C6 cells, or endogenous on human tumour cell lines; also called KT14; hKT14
Assay: binding to C6 cells expressing human CD47, figure legend

binding result | Binder
binds | KT14.5F9hu scFv-B1.28.hu13 (bispecific antibody, human IgG1, kappa) scFv: not shown heavy: EVQLVESGGGLVKPGGSLRLSCAASGFTFGLYTMSWVRQAPGKGLEWVATISSGGSNTYYPDSVKGRFTISRDNAKNSLYLQMNSLRAEDTAVYYCARYYRYDAWFAYWGQGTLVTVSSASTKGPSVFPLAPSSKSTSGGTAALGCLVKDYFPEPVTVSWNSGALTSGVHTFPAVLQSSGLYSLSSVVTVPSSSLGTQTYICNVNHKPSNTKVDKRVEPKSCDKTHTCPPCPAPELLGGPSVFLFPPKPKDTLMISRTPEVTCVVVDVSHEDPEVKFNWYVDGVEVHNAKTKPREEQYNSTYRVVSVLTVLHQDWLNGKEYKCKVSNKALPAPIEKTISKAKGQPREPQVCTLPPSREEMTKNQVSLSCAVKGFYPSDIAVEWESNGQPENNYKTTPPVLDSDGSFFLVSKLTVDKSRWQQGNVFSCSVMHEALHNHYTQKSLSLSPGK light: EVVLTQSPATLSLSPGERATLSCRSSQNIVHSTGNTYLDWYQQKPGQSPRLLIYKVSNRFSGVPARFSGSGSGTDFTLTISSLEPEDFAVYYCFQGSHIPRTFGGGTKLEIKRTVAAPSVFIFPPSDEQLKSGTASVVCLLNNFYPREAKVQWKVDNALQSGNSQESVTEQDSKDSTYSLSSTLTLSKADYEKHKVYACEVTHQGLSSPVTKSFNRGEC
binds | KT14.B6H12hu scFv-B1.28.hu13 (bispecific antibody, human IgG1, kappa) scFv: not shown heavy: EVQLVESGGGLVKPGGSLRLSCAASGFTFGLYTMSWVRQAPGKGLEWVATISSGGSNTYYPDSVKGRFTISRDNAKNSLYLQMNSLRAEDTAVYYCARYYRYDAWFAYWGQGTLVTVSSASTKGPSVFPLAPSSKSTSGGTAALGCLVKDYFPEPVTVSWNSGALTSGVHTFPAVLQSSGLYSLSSVVTVPSSSLGTQTYICNVNHKPSNTKVDKRVEPKSCDKTHTCPPCPAPELLGGPSVFLFPPKPKDTLMISRTPEVTCVVVDVSHEDPEVKFNWYVDGVEVHNAKTKPREEQYNSTYRVVSVLTVLHQDWLNGKEYKCKVSNKALPAPIEKTISKAKGQPREPQVCTLPPSREEMTKNQVSLSCAVKGFYPSDIAVEWESNGQPENNYKTTPPVLDSDGSFFLVSKLTVDKSRWQQGNVFSCSVMHEALHNHYTQKSLSLSPGK light: EVVLTQSPATLSLSPGERATLSCRSSQNIVHSTGNTYLDWYQQKPGQSPRLLIYKVSNRFSGVPARFSGSGSGTDFTLTISSLEPEDFAVYYCFQGSHIPRTFGGGTKLEIKRTVAAPSVFIFPPSDEQLKSGTASVVCLLNNFYPREAKVQWKVDNALQSGNSQESVTEQDSKDSTYSLSSTLTLSKADYEKHKVYACEVTHQGLSSPVTKSFNRGEC
binds | KT14.5F9hu scFv-B1.261.hu1 (bispecific antibody, human IgG1, kappa) scFv: not shown heavy: EVQLQESGPGLVKPSETLSLTCTVSGFSLTSYGVHWVRQPPGKGLEWLVVIWSDGSTTYNSALKSRLTISKDNSKNQVSLKLSSVTAADTAVYYCARHGRWLLQRGGAMDYWGQGTMVTVSSASTKGPSVFPLAPSSKSTSGGTAALGCLVKDYFPEPVTVSWNSGALTSGVHTFPAVLQSSGLYSLSSVVTVPSSSLGTQTYICNVNHKPSNTKVDKRVEPKSCDKTHTCPPCPAPELLGGPSVFLFPPKPKDTLMISRTPEVTCVVVDVSHEDPEVKFNWYVDGVEVHNAKTKPREEQYNSTYRVVSVLTVLHQDWLNGKEYKCKVSNKALPAPIEKTISKAKGQPREPQVCTLPPSREEMTKNQVSLSCAVKGFYPSDIAVEWESNGQPENNYKTTPPVLDSDGSFFLVSKLTVDKSRWQQGNVFSCSVMHEALHNHYTQKSLSLSPGK light: DVQMTQSPSSLSASVGDRVTITCRASQNVGSYIAWYQQKPGKSPKALIYSASYRSSGVPSRFSGSGAGTDFTLTISSLQPEDFATYFCQQYNSYPLTFGGGTKLEIKRTVAAPSVFIFPPSDEQLKSGTASVVCLLNNFYPREAKVQWKVDNALQSGNSQESVTEQDSKDSTYSLSSTLTLSKADYEKHKVYACEVTHQGLSSPVTKSFNRGEC

From patent US20230203156A1 (WILLIAM ROBERT ARATHOON LIVING TRUST DATED AUGUST 29 2016, published 2023)
